Several values for one entry are separate records, joined by “and”; a condition that tells them apart may be missing. Equal values may be shown once. Starred links: 1 amine or outer side, 2 acyl side, 3 side chain; linkers in the order of their positions; H or OH if unused. Positions of bridges follow the written chain, without caps; N, C: chain ends. Non-standard residues stand in square brackets, D forms with d. Primed or numbered codes have the meaning given here. No end group written: not given here. *: point of attachment. E(PEG8Me) = (S)-30-amino-27-oxo-2,5,8,11,14,17,20,23-octaoxa-26-azahentriacontane-31-oic acid, COCCOCCOCCOCCOCCOCCOCCOCCNC(=O)CC[C@H](N[*:1])C(=O)[*:2]; Phe(4-OMe)(3) = (S)-2-amino-3-(4-methoxyphenyl)propanoic acid (source code F4OMe), COc1ccc(C[C@H](N[*:1])C(=O)[*:2])cc1; F4aao = (S)-2-amino-3-(4-(carboxymethoxy)phenyl)propanoic acid, O=C([C@H](Cc1ccc(OCC(=O)[*:3])cc1)N[*:1])[*:2]; Phe(4-OMe)″ = (S)-2-amino-3-(4-methoxyphenyl)propanoic acid (F4OMe), COc1ccc(C[C@H](N[*:1])C(=O)[*:2])cc1; Phe(4-OMe) = F4OMe = (S)-2-amino-3-(4-methoxyphenyl)propanoic acid, COc1ccc(C[C@H](N[*:1])C(=O)[*:2])cc1; Ndm = N4,N4-dimethyl-L-asparagine, CN(C)C(=O)C[C@H](N[*:1])C(=O)[*:2]; Trp(1-CH2CO) = O=C([C@H](Cc1cn(CC(=O)[*:3])c2ccccc12)N[*:1])[*:2]; Trp(5-Cl) = N[C@@H](Cc1c[nH]c2ccc(Cl)cc12)C(=O)O; Phe(3-COOH) = N[C@@H](Cc1cccc(C(=O)O)c1)C(=O)O; NH(CH2CH2O)8Me = COCCOCCOCCOCCOCCOCCOCCOCCN*; NMePhe(3-Cl) = CN[C@@H](Cc1cccc(Cl)c1)C(=O)O; NMePhe(4-F) = CN[C@@H](Cc1ccc(F)cc1)C(=O)O; 3Pal(6-NH2) = Nc1ccc(C[C@H](N)C(=O)O)cn1; NMeY = CN[C@@H](Cc1ccc(O)cc1)C(=O)O; NMeR = CN[C@@H](CCCNC(=N)N)C(=O)O; NMeF = CN[C@@H](Cc1ccccc1)C(=O)O; 3Pal = N[C@@H](Cc1cccnc1)C(=O)O; 4Pal = N[C@@H](Cc1ccncc1)C(=O)O
Experiments:
[1] = target: T1, human transferrin receptor (hTfR) (human, UniProt P02786 89-760); test: SPR; C = KD 100 nM-1 uM
T1 construct: used as 0.5 uM hTfR dimer solution, immobilised on an NTA sensor chip (Ni capture plus EDC/NHS coupling); also called human TfR; TfR1
Procedure: (§1) NTA sensor chip (Global Life Sciences Technologies Japan K.K.) was inserted into BiacoreT200 (Global Life Sciences Technologies Japan K.K.), then the priming operation was performed three times by using running buffer containing: 10 mM HEPES pH 8.0 (Nacalai Tesque, Inc.), 150 mM NaCl (Nacalai Tesque, Inc.), 0.05% Tween 20 (Nacalai Tesque, Inc.), 0.1% BSA (SIGMA-ALDRICH) and 1.0% DMSO (FUJIFILM Wako Pure Chemical Corporation), and equilibrated at a flow rate of 30 μL/min. 350 mM EDTA solution was reacted at a flow rate of 10 μL/min for 60 seconds, 0.5 mM […] solution (Kishida Chemical Co., Ltd.) was reacted at a flow rate of 10 μL/min for 60 seconds, and then the NTA sensor chip was washed with 3 mM EDTA solution (Nacalai Tesque, Inc.) at a flow rate of 10 μL/min for 60 seconds. After mixing 50 μL each of 60 mM EDC solution (Global Life Science Technologies Japan K.K.) and 650 mM NHS solution (Global Life Science Technologies Japan K.K.), the reaction was carried out at a flow rate of 10 μL/min for 420 seconds. 150 μL of 0.5 μM hTfR dimer solution was prepared by dilution with running buffer and reacted at a flow rate of 10 μL/min for 300 seconds to immobilize hTfR on the NTA sensor chip. For the human transferrin receptor (hTfR), recombinant hTfR described in Example 2 of WO2018/124121 was used. After immobilization, capping was performed by reacting with 1.0 M ethanolamine solution (Global Life Sciences Technologies Japan K.K.) at a flow rate of 10 μL/min for 420 seconds. Peptide lysate prepared in DMSO solution to 10 mM was diluted with running buffer to be a final concentration of 10 μM peptide lysate, then peptide solutions of 100 nM, 50 nM, 25 nM, 10 nM, and 5 nM were prepared. Using the above samples, the kinetics of the peptide against hTfR was obtained by SPR measurement.
(§2) The kinetic evaluation model was single-cycle kinetics, and curve fitting was performed using Biacore T200 Evaluation Software Version 3.0 (Global Life Science Technologies Japan K.K.). The binding of the peptide to hTfR was evaluated by performing curve fitting on the obtained sensorgram by least squares method and obtaining the KD value.

[2] = target: T1, human transferrin receptor (hTfR); test: SPR, hTfR immobilised; legend: low signal indicates no activity
Procedure: (§3) NTA sensor chip (Global Life Sciences Technologies Japan K.K.) was inserted into BiacoreT200 (Global Life Sciences Technologies Japan K.K.), then the priming operation was performed three times by using running buffer containing: 10 mM HEPES pH 8.0 (Nacalai Tesque, Inc.), 150 mM NaCl (Nacalai Tesque, Inc.), 0.05% Tween 20 (Nacalai Tesque, Inc.), 0.1% BSA (SIGMA-ALDRICH) and 1.0% DMSO (FUJIFILM Wako Pure Chemical Corporation), and equilibrated at a flow rate of 30 μL/min. 350 mM EDTA solution was reacted at a flow rate of 10 μL/min for 60 seconds, 0.5 mM […] solution (Kishida Chemical Co., Ltd.) was reacted at a flow rate of 10 μL/min for 60 seconds, and then the NTA sensor chip was washed with 3 mM EDTA solution (Nacalai Tesque, Inc.) at a flow rate of 10 μL/min for 60 seconds. After mixing 50 μL each of 60 mM EDC solution (Global Life Science Technologies Japan K.K.) and 650 mM NHS solution (Global Life Science Technologies Japan K.K.), the reaction was carried out at a flow rate of 10 μL/min for 420 seconds. […]
as §2

[3] = target: T1, human transferrin receptor (hTfR); test: SPR; A = KD <1 nM
Procedure: as §1, §2

[4] = target: T1, human transferrin receptor (hTfR); test: SPR; ratio to 894_3151
[5] = target: T1, human transferrin receptor (hTfR); test: SPR, hTfR immobilised, single-cycle kinetics
Procedure: as §3, §2

T1 sequence (P02786 89-760 limits assumed): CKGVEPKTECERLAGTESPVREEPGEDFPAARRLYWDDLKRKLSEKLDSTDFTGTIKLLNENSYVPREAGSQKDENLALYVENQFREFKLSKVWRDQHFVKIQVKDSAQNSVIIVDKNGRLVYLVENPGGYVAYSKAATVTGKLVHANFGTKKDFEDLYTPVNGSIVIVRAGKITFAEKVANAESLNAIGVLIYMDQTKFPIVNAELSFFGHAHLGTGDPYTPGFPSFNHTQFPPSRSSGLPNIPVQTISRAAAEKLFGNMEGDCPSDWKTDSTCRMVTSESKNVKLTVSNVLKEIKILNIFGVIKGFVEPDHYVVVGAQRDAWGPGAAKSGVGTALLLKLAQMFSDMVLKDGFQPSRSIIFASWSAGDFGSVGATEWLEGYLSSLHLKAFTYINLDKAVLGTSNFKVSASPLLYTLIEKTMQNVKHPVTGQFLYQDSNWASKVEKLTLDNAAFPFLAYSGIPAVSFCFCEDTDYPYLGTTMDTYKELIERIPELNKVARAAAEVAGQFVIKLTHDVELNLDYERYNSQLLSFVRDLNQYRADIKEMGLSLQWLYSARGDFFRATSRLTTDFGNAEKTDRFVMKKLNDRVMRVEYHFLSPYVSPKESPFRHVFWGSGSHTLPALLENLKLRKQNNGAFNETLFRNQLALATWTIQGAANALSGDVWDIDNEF

B1: 894_0257 (peptide)
peptide: {CH2CO}-AV[NMePhe(4-F)]V[Trp(5-Cl)]NYYII[NMeR][dR]FYC-NH2
modifications: thioether N-15; not fully specified (residue 14); also: linker PEG4c, place not given here
B1 gave a KD [1] of 100 to 1000 nM.

{CH2CO}-AV[NMePhe(3-Cl)]V[Trp(1-CH2CO)]NY[Phe(4-OMe)(3)]IE[E(PEG8Me)][E(PEG8Me)]F[NMeY]C-NH2 (thioether N-15; also: linker G-de-de-de-ds-ds-KN3, attachment not given here) [894_3180]: no binding (tested: peptide tested up to 100 nM) [2].

B2: 894_3200 (peptide)
peptide: AVFVWNYYIIKRYYC
modifications: 3:MeF,5:MeW,14:MeY; linker G-ds-ds-ds-ds-ds-KN3; ClAc-1/C15 thioether ring; C-term NH2
B2: binds [3].

Binder {CH2CO}-AV[NMePhe(3-Cl)]V[Trp(1-CH2CO)]N[3Pal(6-NH2)][3Pal]IIRE(NH(CH2CH2O)8Me)[Phe(3-COOH)][NMeY]C-NH2 (thioether N-15; also: linker PEG4c) [894_0353] has a KD [1] of 100 to 1000 nM.

For {CH2CO}-AV[NMeF]VWNYYIIRRY[NMeY]C (thioether N-15; not fully specified (C-terminus)) [894_3151], the “KD (Each Peptide)/KD (894_3151)” value [4] was 1 and 1.4, the Kd [5] was 1.3 nM and 1.8 nM and the KD [3] was less than 1 nM.

{CH2CO}-AV[NMePhe(3-Cl)]V[Trp(1-CH2CO)]N[3Pal(6-NH2)][F4aao]IIRE(NH(CH2CH2O)8Me)[Phe(3-COOH)][NMeY]C-NH2 (thioether N-15; also: linker PEG4c) [894_0355] gave a KD [1] of 100 to 1000 nM.

Binder {CH2CO}-AV[NMePhe(3-Cl)]V[Trp(1-CH2CO)]N[3Pal(6-NH2)][3Pal]IIRE(NH(CH2CH2O)8Me)[4Pal][NMeY]C-NH2 (thioether N-15; also: linker PEG4c) [894_0354] has a KD [1] of 100 to 1000 nM.

B3: 894_3152 (peptide)
peptide: {CH2CO}-AV[NMeF]VW[Ndm]YYIIRRY[NMeY]C-NH2
modifications: thioether N-15
SMILES: CC[C@H](C)[C@@H]1NC(=O)[C@H](Cc2ccc(O)cc2)NC(=O)[C@H](Cc2ccc(O)cc2)NC(=O)[C@H](CC(=O)N(C)C)NC(=O)[C@H](Cc2c[nH]c3ccccc23)NC(=O)[C@H](C(C)C)NC(=O)[C@H](Cc2ccccc2)N(C)C(=O)[C@H](C(C)C)NC(=O)[C@H](C)NC(=O)CSC[C@@H](C(N)=O)NC(=O)[C@H](Cc2ccc(O)cc2)N(C)C(=O)[C@H](Cc2ccc(O)cc2)NC(=O)[C@H](CCCNC(=N)N)NC(=O)[C@H](CCCNC(=N)N)NC(=O)[C@H]([C@@H](C)CC)NC1=O
B3 showed a KD [1] of 100 to 1000 nM.

{CH2CO}-AV[NMePhe(3-Cl)]V[Trp(1-CH2CO)]N[3Pal(6-NH2)][F4aao]IIRE(NH(CH2CH2O)8Me)[4Pal][NMeY]C-NH2 (thioether N-15; also: linker PEG4c) [894_0356] gave a KD [1] of 100 to 1000 nM.

{CH2CO}-AV[NMePhe(3-Cl)]VWN[3Pal(6-NH2)][F4aao]II[E(PEG8Me)]R[4Pal][NMeY]C-NH2 (thioether N-15; also: linker PEG4c, attachment not given here) [894_0455] showed a KD [1] of 100 to 1000 nM.

With {CH2CO}-AV[NMePhe(3-Cl)]V[Trp(1-CH2CO)]NY[Phe(4-OMe)″]IIRRF[NMeY]C-NH2 (thioether N-15; also: linker PEG4c, place not given here) [894_0391] the KD [3] was less than 1 nM.

{CH2CO}-AV[NMePhe(3-Cl)]VWNY[F4aao]IIRRF[NMeY]C-NH2 (thioether N-15; also: linker PEG4c, place not given here) [894_0392] gave a KD [3] of less than 1 nM.

B4: 894_0251 (peptide)
peptide: {CH2CO}-AV[NMeF]V[Trp(5-Cl)]NY[Phe(4-OMe)]IIRRFYC-NH2
modifications: thioether N-15; not fully specified (residue 14); also: linker PEG4c, place not given here
B4 showed a KD [3] of less than 1 nM.

In the case of {CH2CO}-AV[NMePhe(3-Cl)]V[Trp(1-CH2CO)]NY[F4aao]IIRRF[NMeY]C-NH2 (thioether N-15; also: linker G-de-de-de-ds-ds-KN3, attachment not given here) [894_3168], the KD [3] is reported as less than 1 nM.

B5: 894_0255 (peptide)
peptide: {CH2CO}-AV[NMePhe(4-F)]V[Trp(5-Cl)]NY[Phe(4-OMe)]IIRRFYC-NH2
modifications: thioether N-15; not fully specified (residue 14); also: linker PEG4c, place not given here
For B5, the KD [3] was less than 1 nM.

In the case of {CH2CO}-AV[NMePhe(3-Cl)]VWNY[Phe(4-OMe)]IIRRFYC-NH2 (thioether N-15; not fully specified (residue 14); also: linker PEG4c) [894_0280], the KD [3] is reported as less than 1 nM.
